B1: G9.2-17 human IgG4 (antibody, V domains shown)
VH: EVQLVESGGGLVQPGGSLRLSCAASGFTVSSSSIHWVRQAPGKGLEWVAYISSSSGYTYYADSVKGRFTISADTSKNTAYLQMNSLRAEDTAVYYCARYWSYPSWWPYRGMDYWGQGTLVTVSS
VL: DIQMTQSPSSLSASVGDRVTITCRASQSVSSAVAWYQQKPGKAPKLLIYSASSLYSGVPSRFSGSRSGTDFTLTISSLQPEDFATYYCQQSSTDPITFGQGTKVEIKR
B2: G9.2-17 mIgG1 (antibody, V domains shown)
VH: B1 VH
VL: B1 VL

Legend:
[1] = molecular target: recombinant, full length human Galectin-9 (R&D Systems 2045-GA) (human) (UniProt O00182); assay: cell-based or functional assay
[2] = molecular target: mouse Galectin-9 CRD2 (residues 226-353) (mouse) (UniProt O08573); assay: bead based binding, mouse CRD2
[3] = molecular target: mouse Galectin-9 CRD2 (residues 226-353) (mouse) (UniProt O08573); assay: SPR, One Step method, Pioneer; mouse CRD2
[4] = molecular target: galectin-9 on the cell surface of the CRL-2134 cell line (human) (UniProt O00182); assay: flow cytometry, saturation curve on CRL-2134 cells
[5] = molecular target: mouse Galectin-9 CRD2 (residues 226-353) (mouse) (UniProt O08573); assay: biolayer interferometry, G9.2-17 captured on anti-Fab probes, mouse gal-9 CRD2 in solution, global fit
[6] = molecular target: galectin-9 on the cell surface of the CRL-2134 cell line (human) (UniProt O00182); assay: cell based binding, flow cytometry on CRL-2134 cells

Chain of recombinant, full length human Galectin-9 (R&D Systems 2045-GA) (human) (O00182 other isoform, or with tags, fused parts or gaps limits assumed): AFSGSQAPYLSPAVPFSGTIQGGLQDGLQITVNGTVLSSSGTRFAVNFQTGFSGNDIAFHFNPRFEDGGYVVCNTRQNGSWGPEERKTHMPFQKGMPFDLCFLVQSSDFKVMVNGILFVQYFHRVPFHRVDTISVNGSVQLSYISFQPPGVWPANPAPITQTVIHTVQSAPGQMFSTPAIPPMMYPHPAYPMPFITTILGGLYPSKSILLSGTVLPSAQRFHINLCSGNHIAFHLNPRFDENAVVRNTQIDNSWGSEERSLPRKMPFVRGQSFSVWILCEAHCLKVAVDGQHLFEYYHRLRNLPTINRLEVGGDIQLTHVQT

Binder	MOLM-13 T cell apoptosis assay [1] [%]	Kd [2] [nM]	Kd [3] [nM]	Kd [4] [nM]	Kd [5] [nM]	Kd [6] [nM]
B1	10	0.3	1.8	0.41	1.6	–
B2	–	0.3	3.05	2.9	–	2.91

— patent US20220204629A1
